# According to patent US20130315910A1 (Xencor, published 2013):
# Where a chain is given by its changes, count along the chain named. Numbers in names are those of the source.
# B1: L234D/G236N/S267E (antibody, human IgG1, kappa)
# heavy: EVQLVESGGGLVKPGGSLKLSCAASGYTFTSYVMHWVRQAPGKGLEWIGYINPYNDGTKYNEKFQGRVTISSDKSISTAYMELSSLRSEDTAMYYCARGTYYYGTRVFDYWGQGTLVTVSSASTKGPSVFPLAPSSKSTSGGTAALGCLVKDYFPEPVTVSWNSGALTSGVHTFPAVLQSSGLYSLSSVVTVPSSSLGTQTYICNVNHKPSNTKVDKKVEPKSCDKTHTCPPCPAPEDLNGPSVFLFPPKPKDTLMISRTPEVTCVVVDVEHEDPEVKFNWYVDGVEVHNAKTKPREEQYNSTYRVVSVLTVLHQDWLNGKEYKCKVSNKALPAPIEKTISKAKGQPREPQVYTLPPSREEMTKNQVSLTCLVKGFYPSDIAVEWESNGQPENNYKTTPPVLDSDGSFFLYSKLTVDKSRWQQGNVFSCSVMHEALHNHYTQKSLSLSPGK
# light: DIVMTQSPATLSLSPGERATLSCRSSKSLQNVNGNTYLYWFQQKPGQSPQLLIYRMSNLNSGVPDRFSGSGSGTEFTLTISSLEPEDFAVYYCMQHLEYPITFGAGTKLEIKRTVAAPSVFIFPPSDEQLKSGTASVVCLLNNFYPREAKVQWKVDNALQSGNSQESVTEQDSKDSTYSLSSTLTLSKADYEKHKVYACEVTHQGLSSPVTKSFNRGEC
# notes: HuAM4G7 anti-CD19 IgG1 (m1) with these Fc substitutions, EU index; copies: 2 + 2
# B2: S267E/L328Y (antibody, human IgG1, kappa)
# heavy: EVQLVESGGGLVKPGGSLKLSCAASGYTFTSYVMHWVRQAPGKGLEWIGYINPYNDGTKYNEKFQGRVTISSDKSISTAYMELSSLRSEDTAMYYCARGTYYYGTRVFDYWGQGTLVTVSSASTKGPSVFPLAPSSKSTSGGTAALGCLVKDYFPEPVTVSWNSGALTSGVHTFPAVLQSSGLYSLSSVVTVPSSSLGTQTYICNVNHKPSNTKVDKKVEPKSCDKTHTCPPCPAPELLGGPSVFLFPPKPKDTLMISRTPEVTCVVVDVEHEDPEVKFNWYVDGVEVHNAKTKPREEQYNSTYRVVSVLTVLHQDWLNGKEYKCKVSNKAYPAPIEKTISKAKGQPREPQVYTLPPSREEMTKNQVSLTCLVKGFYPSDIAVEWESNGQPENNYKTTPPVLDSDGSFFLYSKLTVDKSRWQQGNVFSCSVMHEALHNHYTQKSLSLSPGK
# light: B1 light
# notes: as for B1
# B3: S267D (antibody, human IgG1, kappa)
# heavy: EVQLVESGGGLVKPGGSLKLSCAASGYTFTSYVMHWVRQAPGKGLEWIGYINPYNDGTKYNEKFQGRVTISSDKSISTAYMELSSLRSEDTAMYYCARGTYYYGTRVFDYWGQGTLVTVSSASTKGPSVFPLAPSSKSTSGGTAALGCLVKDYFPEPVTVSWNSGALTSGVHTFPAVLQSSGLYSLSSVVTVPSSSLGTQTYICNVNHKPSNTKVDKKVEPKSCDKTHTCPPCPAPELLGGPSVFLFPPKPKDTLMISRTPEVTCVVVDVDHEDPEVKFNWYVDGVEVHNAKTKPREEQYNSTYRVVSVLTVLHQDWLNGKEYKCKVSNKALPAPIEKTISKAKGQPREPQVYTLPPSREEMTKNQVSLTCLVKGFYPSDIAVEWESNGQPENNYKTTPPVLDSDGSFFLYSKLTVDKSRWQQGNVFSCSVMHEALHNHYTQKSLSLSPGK
# light: B1 light
# notes: HuAM4G7 anti-CD19 IgG1 (m1) with this Fc substitution, EU index; copies: 2 + 2
# B4: anti-CD19 antibody HuAM4G7 IgG1 S267A (antibody)
# heavy: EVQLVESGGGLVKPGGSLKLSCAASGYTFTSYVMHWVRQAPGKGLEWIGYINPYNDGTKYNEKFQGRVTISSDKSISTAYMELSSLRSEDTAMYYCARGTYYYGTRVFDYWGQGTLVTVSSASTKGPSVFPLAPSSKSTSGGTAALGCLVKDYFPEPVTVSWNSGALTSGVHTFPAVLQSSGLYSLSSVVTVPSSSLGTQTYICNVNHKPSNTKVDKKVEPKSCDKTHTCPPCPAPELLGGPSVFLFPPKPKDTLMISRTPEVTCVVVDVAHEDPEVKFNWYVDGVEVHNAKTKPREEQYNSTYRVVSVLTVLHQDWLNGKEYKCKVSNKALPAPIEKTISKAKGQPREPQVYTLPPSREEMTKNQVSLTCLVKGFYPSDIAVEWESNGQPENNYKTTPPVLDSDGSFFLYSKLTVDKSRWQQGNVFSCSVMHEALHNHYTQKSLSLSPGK
# light: B1 light
# notes: Positions in EU numbering; copies: 2 + 2
# Experiments:
# mFcγRIIb [1] = target: T1, mFcγRIIb (Mus musculus, UniProt P08101); assay: SPR, Kd
# T1 construct: extracellular region, C-terminal His- and GST-tag; also called mouse FcγRII
# T1 sequence (receptor extracellular region, looked up): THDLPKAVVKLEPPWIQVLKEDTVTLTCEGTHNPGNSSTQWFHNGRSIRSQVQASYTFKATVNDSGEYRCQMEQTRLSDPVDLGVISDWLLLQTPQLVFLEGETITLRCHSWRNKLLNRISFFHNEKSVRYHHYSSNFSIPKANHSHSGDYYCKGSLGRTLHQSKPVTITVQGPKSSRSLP
# Procedure: (§1) Variants were screened for receptor affinity using Biacore™ technology, also referred to as Biacore herein, a surface plasmon resonance (SPR) based technology for studying biomolecular interactions in real time. SPR measurements were performed using a Biacore 3000 instrument (Biacore, Piscataway, N.J.). A protein A/G (Pierce Biotechnology) CM5 biosensor chip (Biacore) was generated using a standard primary amine coupling protocol. All measurements were performed using HBS-EP buffer (10 mM HEPES pH 7.4, 0.15 M NaCl, 3 mM EDTA, 0.005% vol/vol surfactant P20, Biacore). Antibodies at 20 nM or 50 nM in HBS-EP buffer were immobilized on the protein A/G surface and FcγRs were injected. After each cycle, the surface was regenerated by injecting glycine buffer (10 mM, pH 1.5). Data were processed by zeroing time and response before the injection of FcγR and by subtracting appropriate nonspecific signals (response of reference channel and injection of running buffer). Kinetic analyses were performed by global fitting of binding data with a 1:1 Langmuir binding model using BIAevaluation software (Biacore).
# (§2) Variant antibodies were tested for their affinity to mouse or cynologous monkey FcγRs using Biacore SPR as described above. Specifically, antibodies were first immobilized on a protein A/G chip to high density, and then followed by injections of the extracellular domain of the mouse or cynologous monkey FcγR of interest. Both association and dissociation phases were tracked in real time using the Biacore technology.
# cynoFcγRIIb [2] = target: T2, cynoFcγRIIb (Macaca fascicularis, UniProt A0A140HDP4); assay: SPR, Kd
# T2 construct: extracellular region, C-terminal His- and GST-tag; also called cynomolgus monkey FcγRIIb
# T2 sequence (receptor extracellular region): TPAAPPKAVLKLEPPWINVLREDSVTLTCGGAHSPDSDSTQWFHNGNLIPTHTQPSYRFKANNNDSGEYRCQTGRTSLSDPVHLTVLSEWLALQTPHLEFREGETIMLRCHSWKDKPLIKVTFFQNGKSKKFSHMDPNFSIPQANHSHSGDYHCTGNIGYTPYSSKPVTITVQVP
# Procedure: as §1, §2
# [3] = target: T3, human FcγRIIa (131R), His- and GST-tagged (human, UniProt P12318 34-217); assay: SPR
# T3 construct: Expressed in HEK293T cells, purified by nickel chromatography; also called R131 FcγRIIa; not shown: 6xHis and GST tags of the pTT5 vector
# T3 sequence (looked up): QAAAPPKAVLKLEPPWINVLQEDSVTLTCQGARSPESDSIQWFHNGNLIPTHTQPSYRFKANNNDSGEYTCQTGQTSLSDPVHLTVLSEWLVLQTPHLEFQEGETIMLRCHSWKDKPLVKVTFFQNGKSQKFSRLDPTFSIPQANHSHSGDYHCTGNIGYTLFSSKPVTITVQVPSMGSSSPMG
# [4] = target: T4, human FcγRIIb receptor protein (R&D Systems) (human, UniProt P31994 46-217); assay: SPR
# T4 construct: Bought protein injected over captured antibody in Biacore; also called CD32b
# T4 sequence (looked up): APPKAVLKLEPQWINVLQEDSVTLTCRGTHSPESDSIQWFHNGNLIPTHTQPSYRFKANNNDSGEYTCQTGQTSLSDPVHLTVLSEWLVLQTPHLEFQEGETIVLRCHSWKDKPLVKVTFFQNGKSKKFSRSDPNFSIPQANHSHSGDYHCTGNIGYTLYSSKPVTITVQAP
# cynoFcγRIIIa [5] = target: T5, cynoFcγRIIIa (Macaca fascicularis, UniProt Q8SPW2); assay: SPR, Kd
# T5 construct: extracellular region, C-terminal His- and GST-tag; also called cynomolgus monkey FcγRIIIa
# Procedure: as §1, §2
# [6] = target: T6, human FcγRIIa (131H), His- and GST-tagged (human, UniProt P12318 34-217); assay: SPR
# T6 construct: also called H131 FcγRIIa; HIIa; not shown: 6xHis and GST tags of the pTT5 vector
# T6 sequence (looked up): T3 sequence (looked up) with R134H
# [7] = target: T7, human FcγRIIIa (158V), His- and GST-tagged (human, UniProt P08637 17-208); assay: SPR
# T7 construct: also called V158 FcγRIIIa; VIIIa; not shown: 6xHis and GST tags of the pTT5 vector
# [8] = target: T8, human FcγRI receptor protein (R&D Systems) (human, UniProt P12314 16-288); assay: SPR
# T8 construct: also called soluble FcγRI; solFcγRI
# mFcγRIIb [9] = target: T1, mFcγRIIb; assay: SPR
# cynoFcγRIIb [10] = target: T2, cynoFcγRIIb; assay: SPR
# cynoFcγRIIIa [11] = target: T5, cynoFcγRIIIa; assay: SPR
# mFcγRIV = target: T9, mFcγRIV; assay: SPR
# T9 construct: also called mouse FcγRIV; not shown: C-terminal His and GST tags (named only on our card)
# T9 chain: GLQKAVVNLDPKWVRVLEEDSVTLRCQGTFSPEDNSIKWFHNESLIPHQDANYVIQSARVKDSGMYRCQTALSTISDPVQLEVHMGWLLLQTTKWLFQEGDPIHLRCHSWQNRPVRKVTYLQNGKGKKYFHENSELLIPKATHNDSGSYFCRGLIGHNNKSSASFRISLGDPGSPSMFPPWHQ
# [12] = target: T10, human FcγRIIb on cells (transfected HEK293T cells; primary human B cells) (human, UniProt P31994 43-310); assay: flow cytometry on FcγRIIb-transfected 293T cells [top left panel]
# T10 construct: whole, on cells; also called CD32b
# T10 sequence (looked up): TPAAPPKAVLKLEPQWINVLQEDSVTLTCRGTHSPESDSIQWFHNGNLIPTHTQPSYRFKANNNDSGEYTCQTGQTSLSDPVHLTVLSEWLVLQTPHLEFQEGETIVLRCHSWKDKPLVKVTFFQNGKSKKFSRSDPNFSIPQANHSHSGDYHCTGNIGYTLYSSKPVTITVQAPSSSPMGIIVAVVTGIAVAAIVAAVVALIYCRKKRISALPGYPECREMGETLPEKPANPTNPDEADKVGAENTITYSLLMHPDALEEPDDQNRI
# Procedure: In order to validate the Biacore data and evaluate receptor binding of the variants on the cell surface, binding of select antibodies to cells expressing FcγRIIb was measured. […] HEK293T cells in DMEM with 10% FBS were transfected with human FcγRIIb cDNA in pCMV6 expression vector (Origene Technologies, Rockville, Md.), cultured for 3 days, harvested, washed twice in PBS, resuspended in PBS with 0.1% BSA (PBS/BSA), and aliquoted at 2×10^5 cells per well into 96-well microtiter plates. Fc variant antibodies were serially diluted in PBS/BSA then added to the cells and incubated with mixing for 1 h at room temperature. After extensive washing with PBS/BSA, phycoerythrin (PE)-labeled anti-human-Fab-specific goat F(ab′)2 fragment was added for detection. Cells were incubated for 30 min at room temperature, washed, and resuspended in PBS/BSA. Binding was evaluated using a FACSCanto II flow cytometer (BD Biosciences, San Jose, Calif.), and the mean fluorescence intensity (MFI) was plotted as a function of antibody concentration using Graph Pad Prism software (GraphPad Software, San Diego, Calif.) from which half-maximal binding (EC50) values were determined by sigmoidal dose response modeling.
# [13] = target: T4, human FcγRIIb receptor protein (R&D …); assay: Biacore SPR, Kd(native IgG1)/Kd(variant)
# [14] = target: T4, human FcγRIIb receptor protein (R&D …); assay: Biacore SPR, antibody captured on protein A/G chip, FcγR injected
# 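For Fold vs WT IgG1 (off-rate) in this document: fold improvement over WT IgG1 so higher means slower dissociation than WT.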
# T7 sequence (P08637 17-208 F176V): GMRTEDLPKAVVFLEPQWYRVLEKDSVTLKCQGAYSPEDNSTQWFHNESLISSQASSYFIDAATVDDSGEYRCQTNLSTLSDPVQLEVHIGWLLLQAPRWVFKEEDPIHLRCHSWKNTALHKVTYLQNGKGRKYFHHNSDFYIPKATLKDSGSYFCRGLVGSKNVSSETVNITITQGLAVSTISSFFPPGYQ
# T8 sequence (P12314 16-288 limits assumed): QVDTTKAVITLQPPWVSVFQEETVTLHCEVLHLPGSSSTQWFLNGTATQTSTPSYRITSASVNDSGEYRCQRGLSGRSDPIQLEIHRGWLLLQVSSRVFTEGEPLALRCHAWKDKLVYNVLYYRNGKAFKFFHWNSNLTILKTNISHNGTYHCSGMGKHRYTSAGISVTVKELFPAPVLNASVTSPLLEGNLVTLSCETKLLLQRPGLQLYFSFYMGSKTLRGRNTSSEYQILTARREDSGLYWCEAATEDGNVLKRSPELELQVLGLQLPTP
# T5 sequence (Q8SPW2 17-208): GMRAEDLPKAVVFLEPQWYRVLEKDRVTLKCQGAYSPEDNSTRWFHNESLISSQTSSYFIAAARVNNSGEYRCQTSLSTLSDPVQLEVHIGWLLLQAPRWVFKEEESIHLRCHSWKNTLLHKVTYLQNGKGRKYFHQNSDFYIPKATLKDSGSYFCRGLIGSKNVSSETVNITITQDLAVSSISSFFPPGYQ
Binder,Fold vs WT IgG1 [3],Kd [3],Fold vs WT IgG1 [4],Kd [4],Fold vs WT IgG1 [6],Kd [6],Fold vs WT IgG1 [8],Kd [8],Fold vs WT IgG1 (off-rate) (mFcγRIIb [9]),Fold vs WT IgG1 (off-rate) (cynoFcγRIIb [10]),Fold vs WT IgG1 [7],Kd [7],Fold vs WT IgG1 (off-rate) (cynoFcγRIIIa [11]),Fold vs WT IgG1 (off-rate) (mFcγRIV),other results
B1,0.728 fold,1180 nM,5.11 fold,287 nM,,,,,,,,,,,binding result (mFcγRIIb [1]): no binding; binding result (cynoFcγRIIb [2]): no binding
B2,122 fold,7.06 nM,43.1 fold,34.1 nM,1.34 fold,481 nM,0.224 fold,1.47 nM,7.92 fold,1.93 fold,,,,,binding result (cynoFcγRIIIa [5]): no binding; binding result [7]: no binding
B3,8.99 fold,95.5 nM,4.45 fold,330 nM,0.93 fold,695 nM,2.11 fold,0.156 nM,1.95 fold,1.03 fold,1.51 fold,127 nM,1.27 fold,1.27 fold,EC50 (read off the curve) [12]: ~0.03 µg/mL
B4,4.29 fold,200 nM,,,1.22 fold,530 nM,1.15 fold,0.287 nM,3.02 fold,1.05 fold,0.952 fold,201 nM,1.27 fold,1.53 fold,fold affinity relative to native IgG1 [13]: 3.6 fold; Kd [14]: 408 nM
